Read-outs that look alike come from different tables or passages of the source. Starred links: 1 amine or outer side, 2 acyl side, 3 side chain; linkers in the order of their positions; H or OH if unused. Positions of bridges follow the written chain, without caps; N, C: chain ends. Non-standard residues stand in square brackets, D forms with d. No end group written: not given here. Ser(Bzl) = O-benzyl-serine, O=C([C@H](COCc1ccccc1)N[*:1])[*:2]; dPhe(4-Cl) = N[C@H](Cc1ccc(Cl)cc1)C(=O)O; 1Nal = N[C@@H](Cc1cccc2ccccc12)C(=O)O; 2Nal = N[C@@H](Cc1ccc2ccccc2c1)C(=O)O; d2Nal = N[C@H](Cc1ccc2ccccc2c1)C(=O)O; Nle = CCCC[C@H](N)C(=O)O; Ahp = NCCCCCCC(=O)O
Key:
[1] = target: T1, MC1-R of B-16 mouse melanoma cells (mouse, UniProt Q01727 1-315); assay: radioligand competition, [I125]-NDP-α-MSH, B-16 membranes
T1 construct: whole, on cells; also called B16-F10 (MC1-R)

[2] = target: T2, human melanocortin 4 receptor (human, UniProt P32245 1-332); assay: radioligand competition, [I125]-NDP-α-MSH, hMC4-R membranes
T2 construct: whole, on cells; cAMP assays used whole cells; also called hMC4-R; MC4-R

[3] = target: T3, human melanocortin 3 receptor (human, UniProt P41968 1-323); assay: radioligand competition, [I125]-NDP-α-MSH, hMC3-R membranes
T3 construct: whole, on cells; also called hMC3-R; MC3-R

[4] = target: T4, human melanocortin 5 receptor (human, UniProt P33032 1-325); assay: radioligand competition, [I125]-NDP-α-MSH, hMC5-R membranes
T4 construct: whole, on cells; also called hMC5-R; MC5-R

[5] = target: T3, human melanocortin 3 receptor; assay: radioligand competition, [I125]-NDP-α-MSH, hMC3-R membranes; remark: listed apart in the source
[6] = target: T2, human melanocortin 4 receptor; assay: cell-based or functional assay
[7] = target: T1, MC1-R of B-16 mouse melanoma cells; assay: radioligand competition, [I125]-NDP-α-MSH, B-16 membranes; remark: listed apart in the source
[8] = target: T4, human melanocortin 5 receptor; assay: radioligand competition, [I125]-NDP-α-MSH, hMC5-R membranes; remark: listed apart in the source
human MC1-R = target: T5, human MC1-R (human, UniProt Q01726 1-317); assay: radioligand competition, NDP-α-MSH, human MC1-R, normal system
T5 construct: whole, on cells; Used in separate experiments for Ki with NDP-α-MSH; the source of the membranes is not described; also called hMC1-R

[9] = target: T2, human melanocortin 4 receptor; assay: radioligand competition, [I125]-NDP-α-MSH, hMC4-R membranes; remark: listed apart in the source
[10] = target: T2, human melanocortin 4 receptor; assay: cell-based or functional assay; remark: listed apart in the source
[11] = target: T1, MC1-R of B-16 mouse melanoma cells; assay: radioligand competition, [I125]-NDP-α-MSH, B-16 membranes; remark: listed apart in the source
[12] = target: T2, human melanocortin 4 receptor; assay: cell-based or functional assay; remark: listed apart in the source
[13] = target: T4, human melanocortin 5 receptor; assay: radioligand competition, [I125]-NDP-α-MSH, hMC5-R membranes; remark: listed apart in the source
[14] = target: T3, human melanocortin 3 receptor; assay: radioligand competition, [I125]-NDP-α-MSH, hMC3-R membranes; remark: listed apart in the source
[15] = target: T2, human melanocortin 4 receptor; assay: radioligand competition, [I125]-NDP-α-MSH, hMC4-R membranes; remark: listed apart in the source
[16] = target: T1, MC1-R of B-16 mouse melanoma cells; assay: radioligand competition, [I125]-NDP-α-MSH, B-16 membranes; remark: listed apart in the source
[17] = target: T4, human melanocortin 5 receptor; assay: radioligand competition, [I125]-NDP-α-MSH, hMC5-R membranes; remark: listed apart in the source
[18] = target: T2, human melanocortin 4 receptor; assay: cell-based or functional assay; remark: listed apart in the source
[19] = target: T3, human melanocortin 3 receptor; assay: radioligand competition, [I125]-NDP-α-MSH, hMC3-R membranes; remark: listed apart in the source
[20] = target: T2, human melanocortin 4 receptor; assay: radioligand competition, [I125]-NDP-α-MSH, hMC4-R membranes; remark: listed apart in the source
[21] = target: T2, human melanocortin 4 receptor; assay: as above; remark: listed apart in the source
[22] = target: T3, human melanocortin 3 receptor; assay: radioligand competition, [I125]-NDP-α-MSH, hMC3-R membranes; remark: listed apart in the source
[23] = target: T1, MC1-R of B-16 mouse melanoma cells; assay: radioligand competition, [I125]-NDP-α-MSH, B-16 membranes; remark: listed apart in the source
[24] = target: T2, human melanocortin 4 receptor; assay: cell-based or functional assay; remark: listed apart in the source
[25] = target: T2, human melanocortin 4 receptor; assay: radioligand competition, [I125]-NDP-α-MSH, hMC4-R membranes; remark: listed apart in the source
[26] = target: T3, human melanocortin 3 receptor; assay: radioligand competition, [I125]-NDP-α-MSH, hMC3-R membranes; remark: listed apart in the source
[27] = target: T1, MC1-R of B-16 mouse melanoma cells; assay: radioligand competition, [I125]-NDP-α-MSH, B-16 membranes; remark: listed apart in the source
[28] = target: T2, human melanocortin 4 receptor; assay: cell-based or functional assay; remark: listed apart in the source
[29] = target: T4, human melanocortin 5 receptor; assay: radioligand competition, [I125]-NDP-α-MSH, hMC5-R membranes; remark: listed apart in the source
[30] = target: T2, human melanocortin 4 receptor; assay: cell-based or functional assay; remark: listed apart in the source
[31] = target: T1, MC1-R of B-16 mouse melanoma cells; assay: radioligand competition, [I125]-NDP-α-MSH, B-16 membranes; remark: listed apart in the source
[32] = target: T3, human melanocortin 3 receptor; assay: radioligand competition, [I125]-NDP-α-MSH, hMC3-R membranes; remark: listed apart in the source
[33] = target: T2, human melanocortin 4 receptor; assay: radioligand competition, [I125]-NDP-α-MSH, hMC4-R membranes; remark: listed apart in the source
[34] = target: T4, human melanocortin 5 receptor; assay: radioligand competition, [I125]-NDP-α-MSH, hMC5-R membranes; remark: listed apart in the source
[35] = target: T2, human melanocortin 4 receptor; assay: cell-based or functional assay; remark: listed apart in the source
[36] = target: T4, human melanocortin 5 receptor; assay: radioligand competition, [I125]-NDP-α-MSH, hMC5-R membranes; remark: listed apart in the source
[37] = target: T2, human melanocortin 4 receptor; assay: radioligand competition, [I125]-NDP-α-MSH, hMC4-R membranes; remark: listed apart in the source
[38] = target: T3, human melanocortin 3 receptor; assay: radioligand competition, [I125]-NDP-α-MSH, hMC3-R membranes; remark: listed apart in the source
[39] = target: T1, MC1-R of B-16 mouse melanoma cells; assay: radioligand competition, [I125]-NDP-α-MSH, B-16 membranes; remark: listed apart in the source

T2 sequence (P32245 whole entry): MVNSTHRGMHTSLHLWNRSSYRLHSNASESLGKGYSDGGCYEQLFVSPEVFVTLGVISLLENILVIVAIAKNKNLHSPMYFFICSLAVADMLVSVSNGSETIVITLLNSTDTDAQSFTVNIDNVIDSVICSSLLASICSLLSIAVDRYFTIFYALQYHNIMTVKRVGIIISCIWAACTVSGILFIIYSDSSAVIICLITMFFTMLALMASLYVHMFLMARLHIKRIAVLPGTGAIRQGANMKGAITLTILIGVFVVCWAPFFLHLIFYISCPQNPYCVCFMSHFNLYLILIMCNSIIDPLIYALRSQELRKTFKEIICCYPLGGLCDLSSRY
T3 sequence (P41968 whole entry): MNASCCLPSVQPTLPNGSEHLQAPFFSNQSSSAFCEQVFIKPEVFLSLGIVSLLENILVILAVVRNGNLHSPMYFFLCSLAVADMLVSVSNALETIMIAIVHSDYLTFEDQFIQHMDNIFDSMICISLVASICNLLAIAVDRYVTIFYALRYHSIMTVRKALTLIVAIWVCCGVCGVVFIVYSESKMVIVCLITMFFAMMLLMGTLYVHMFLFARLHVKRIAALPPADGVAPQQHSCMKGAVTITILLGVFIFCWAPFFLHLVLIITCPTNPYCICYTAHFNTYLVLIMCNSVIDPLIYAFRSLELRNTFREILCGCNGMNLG
T5 sequence (Q01726 whole entry): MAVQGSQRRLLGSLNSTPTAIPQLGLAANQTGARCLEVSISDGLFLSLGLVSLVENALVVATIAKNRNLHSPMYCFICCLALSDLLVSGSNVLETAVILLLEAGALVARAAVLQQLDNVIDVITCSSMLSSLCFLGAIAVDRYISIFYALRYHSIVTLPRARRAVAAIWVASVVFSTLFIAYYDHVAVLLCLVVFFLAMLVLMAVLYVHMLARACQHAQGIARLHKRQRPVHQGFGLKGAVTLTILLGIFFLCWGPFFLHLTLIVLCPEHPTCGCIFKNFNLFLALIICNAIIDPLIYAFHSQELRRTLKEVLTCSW
T1 sequence (Q01727 whole entry): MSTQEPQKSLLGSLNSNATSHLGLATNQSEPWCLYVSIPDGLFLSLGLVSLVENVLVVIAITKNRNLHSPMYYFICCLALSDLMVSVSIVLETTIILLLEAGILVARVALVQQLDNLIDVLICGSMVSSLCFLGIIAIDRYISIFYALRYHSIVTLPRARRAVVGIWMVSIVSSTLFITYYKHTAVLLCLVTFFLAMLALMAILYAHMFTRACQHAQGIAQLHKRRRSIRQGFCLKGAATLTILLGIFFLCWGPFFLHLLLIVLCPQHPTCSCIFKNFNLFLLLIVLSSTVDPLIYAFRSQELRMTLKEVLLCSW
T4 sequence (P33032 whole entry): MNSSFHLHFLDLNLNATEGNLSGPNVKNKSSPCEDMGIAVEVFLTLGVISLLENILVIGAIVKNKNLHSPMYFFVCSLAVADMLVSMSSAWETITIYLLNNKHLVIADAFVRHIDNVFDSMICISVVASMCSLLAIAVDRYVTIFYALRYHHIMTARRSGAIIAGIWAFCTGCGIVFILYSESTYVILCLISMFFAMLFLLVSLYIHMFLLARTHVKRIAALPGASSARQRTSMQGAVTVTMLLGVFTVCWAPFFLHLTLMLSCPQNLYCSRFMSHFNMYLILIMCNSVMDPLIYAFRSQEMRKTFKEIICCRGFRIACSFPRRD

B1: Ac-cyclo(Asp-Trp-D-Nal 2-Arg-Nal 2-Lys)-NH-CH3 (peptide)
peptide: Ac-DW[d2Nal]R[2Nal]K-NHMe
modifications: lactam 1-6
notes: also called Compound No. 35
Ki [1]: 643 nM
Ki [2]: 0.06 nM
Ki [3]: 3 nM
Ki [4]: 6 nM

B2: Ac-Nle-cyclo(-Asp-Trp-D-Phe-Arg-Nal 1-Lys)-N(CH3)2 (peptide)
peptide: Ac-[Nle]DW[dF]R[1Nal]K-NMe2
modifications: lactam 2-7
notes: also called Compound No. 36
Ki [5]: 231 nM
EC50 (nM) (cAMP), High Receptor Density System [6]: 4 nM
Ki [7]: 12 nM
Ki [8]: 31 nM
Ki (human MC1-R): 39 nM
Ki [9]: 38 nM
EC50 (nM), normal system (cAMP) [10]: 272 nM
intrinsic activity, normal system (cAMP) [10]: 0.8

B3: Ac-Nle-cyclo(-Asp-His-D-Phe-Arg-Nal 1-Lys)-N(CH3)2 (peptide)
peptide: XDHFRXK
modifications: N-terminal acetyl; Nle at 1 (X); D-Phe at 4; Nal 1 at 6 (X); cyclo(Asp 2 to Lys 7); C-terminal dimethylamide -N(CH3)2
notes: also called Compound No. 37
Ki [11]: 0.39 nM
EC50 (nM) (cAMP), High Receptor Density System [12]: 0.6 nM
EC50 (nM) (cAMP), Low Receptor Density System [12]: 2.1 nM
Ki [13]: 50 nM
Ki (human MC1-R): 0.08 nM
Ki [14]: 111 nM
EC50 (nM), normal system (cAMP) [10]: 44 nM
intrinsic activity, normal system (cAMP) [10]: 0.7
Ki [15]: 5 nM

B4: Ac-Nle-cyclo(-Asp-His-D-Phe-Arg-Nal 1-Lys)-NH-CH2-CH3 (peptide)
peptide: XDHFRXK
modifications: N-terminal acetyl; Nle at 1 (X); D-Phe at 4; Nal 1 at 6 (X); cyclo(Asp 2 to Lys 7); C-terminal ethylamide -NH-CH2-CH3
notes: also called Compound No. 39
Ki [16]: 0.07 nM
Ki [17]: 63 nM
EC50 (nM) (cAMP), High Receptor Density System [18]: 1.1 nM
EC50 (nM) (cAMP), Low Receptor Density System [18]: 10 nM
Ki [19]: 28 nM
Ki (human MC1-R): 0.04 nM
Ki [20]: 2 nM
EC50 (nM), normal system (cAMP) [10]: 0.2 nM
intrinsic activity, normal system (cAMP) [10]: 0.6

B5: Ac-cyclo(-Asp-His-D-Phe-Arg-Trp-Lys)-NH-CH2-CH3 (peptide)
peptide: Ac-DH[dF]RWK-NHEt
modifications: lactam 1-6
notes: also called Compound No. 40
Ki [21]: 6 nM
Ki [22]: 84 nM
Ki [23]: 5 nM
Ki (human MC1-R): 0.52 nM
EC50 (nM) (cAMP), Low Receptor Density System [24]: 3.1 nM
EC50 (nM), normal system (cAMP) [10]: 3 nM
intrinsic activity, normal system (cAMP) [10]: 0.6

B6: NH2-(CH2)6-C(=O)-Ser(Bzl)-D-Phe(4-Cl)-Arg-Trp-Asp-NH2 (peptide)
peptide: [Ahp][Ser(Bzl)][dPhe(4-Cl)]RWD-NH2
modifications: N-terminus assumed
SMILES: N=C(N)NCCC[C@H](NC(=O)[C@@H](Cc1ccc(Cl)cc1)NC(=O)[C@H](COCc1ccccc1)NC(=O)CCCCCCN)C(=O)N[C@@H](Cc1c[nH]c2ccccc12)C(=O)N[C@@H](CC(=O)O)C(N)=O
notes: also called Compound No. 13
Ki [25]: 9 nM
Ki [26]: 180 nM
Ki [27]: 760 nM
EC50 (nM) (cAMP), High Receptor Density System [28]: 34 nM
Ki [29]: 596 nM
EC50 (nM), normal system (cAMP) [10]: 568 nM
intrinsic activity, normal system (cAMP) [10]: 0.5

B7: NH2-(CH2)6-C(=O)-Ser(Bzl)-(D)Phe(4-Cl)-Arg-Trp-NH2 (peptide)
peptide: [Ahp][Ser(Bzl)][dPhe(4-Cl)]RW-NH2
modifications: N-terminus assumed
SMILES: N=C(N)NCCC[C@H](NC(=O)[C@@H](Cc1ccc(Cl)cc1)NC(=O)[C@H](COCc1ccccc1)NC(=O)CCCCCCN)C(=O)N[C@@H](Cc1c[nH]c2ccccc12)C(N)=O
notes: also called Compound No. 1
EC50 (nM) (cAMP), High Receptor Density System [30]: 21 nM
Ki [31]: 351 nM
Ki [32]: 27 nM
Ki [33]: 3 nM
Ki [34]: 208 nM
EC50 (nM) at MC4-R in a normal system (cAMP) [10]: 296 nM
intrinsic activity, normal system (cAMP) [10]: 0.32

B8: Ac-Nle-cyclo(-Asp-Trp-D-Phe-Arg-Nal 1-Lys)-NH-CH2-CH3 (peptide)
peptide: Ac-[Nle]DW[dF]R[1Nal]K-NHEt
modifications: lactam 2-7
SMILES: CCCC[C@H](NC(C)=O)C(=O)N[C@H]1CC(=O)NCCCC[C@@H](C(=O)NCC)NC(=O)[C@H](Cc2cccc3ccccc23)NC(=O)[C@H](CCCNC(=N)N)NC(=O)[C@@H](Cc2ccccc2)NC(=O)[C@H](Cc2c[nH]c3ccccc23)NC1=O
notes: also called Compound No. 38
EC50 (nM) (cAMP), High Receptor Density System [35]: 10 nM
Ki [36]: 47 nM
Ki (human MC1-R): 30 nM
Ki [37]: 9 nM
EC50 (nM), normal system (cAMP) [10]: 120 nM
intrinsic activity, normal system (cAMP) [10]: 0.6
Ki [38]: 77 nM
Ki [39]: 4.2 nM
